This note sets out measurements from PMC6032326, “Connexin43 Carboxyl-Terminal Domain Directly Interacts with β-Catenin” (International Journal of Molecular Sciences, 2018).

A word on the Kd: it is the concentration at which binding is half-saturated. Lower therefore signals higher affinity.

One assay concerns the target T1, Cx43CT Y313D (rat, UniProt P08050 236-382, Y313D, 15N-labelled).
T1 construct: Connexin43 (Cx43), rat, carboxyl-terminal domain, residues V236-I382, with the phosphomimetic Y313D; The mutation was put into 'the Cx43CT plasmid'; also called single phosphomimetic; source: bacterial expression vector pGEX-6P-2, expressed and purified in 1x PBS as previously described
The assay can be described thus: NMR titration; 15N-HSQC at 7 °C; 15N-labelled Cx43CT (WT, Y313D or Y265,313D) at constant 35 μM, unlabelled β-catenin, β-catenin CT or β-catenin ΔCT added up to 285 μM; 1x PBS pH 7.8, 2 mM dithiothreitol; KD from the fit of the decrease in signal intensity. As to conditions: both partners purified.

The target in assay [1] is T2, Connexin43 carboxyl-terminal domain (V236–I382) (rat, UniProt P08050 236-382, 15N-labelled).
T2 construct: Connexin43 (Cx43), rat, carboxyl-terminal domain, residues V236-I382; pGEX-6P-2 carries a PreScission site, so GST was probably cleaved (surmise); also called Cx43CT; Cx43CT WT; source: bacterial expression vector pGEX-6P-2, expressed and purified in 1x PBS as previously described
The description is as above. As to conditions: both partners purified.

“And” between values parts separate entries of the source, which are not always exact repeats. Identical values can stand only once.

B1: β-catenin carboxyl-terminal (CT) domain (S681–L781) (domain or fragment, human, UniProt P35222 681-781, looked up)
chain: SLFRTEPMAWNETADLGLDIGAQGEPLGYRQDDPSYRSFHSGGYGQDALGMDPMMEHEMGGHHPGADYPVDGLPDLGHAQDLMDGLPPGDSNQLAWFDTDL
notes: β-catenin, human, C-terminal domain, residues S681-L781; also called β-catenin CT; β-catenin CT domain
With B1, the Kd was 341 µM in the assay with Cx43CT Y313D; 210 µM and 202 µM in assay [1].
